Data from US20080058263A1 (published 2008).
Substitutions are numbered along the chain they refer to.

T1: VEGFR-3-Fc (UniProt P35916 25-328)
T1 construct: domain: first three Ig domains; conditioned supernatant of 293T cells; also called VEGFR-3-Fc fusion protein; not shown: Fc fragment of the pIg vector
T1 sequence (looked up): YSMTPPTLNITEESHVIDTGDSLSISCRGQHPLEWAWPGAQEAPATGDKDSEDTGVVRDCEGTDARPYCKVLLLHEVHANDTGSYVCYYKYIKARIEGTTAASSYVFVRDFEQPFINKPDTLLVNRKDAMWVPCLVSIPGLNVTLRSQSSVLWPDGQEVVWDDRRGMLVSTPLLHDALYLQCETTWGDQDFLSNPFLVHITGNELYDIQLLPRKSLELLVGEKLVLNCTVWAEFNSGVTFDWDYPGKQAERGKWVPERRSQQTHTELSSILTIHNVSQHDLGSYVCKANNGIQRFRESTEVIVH

B1: 21-9 (ligand)
chain: AHYNTEILKSIDNEWRKTQCMPREVCIDVGKEYPDEIEYIFKPSCVPLMRCGGCCNDEGLECVPTEESNITMQIMRITVPLSQGPKPVTISFLQHNKCECRPKKD
B2: 33-9 (ligand)
chain: GQNHHEVVKSIDNEWRKTQCMPIETLVDIFQEYPDEIEYIFKPPCVSVYRCGGCCNDEGLECVPTEESNITMQIMRITVPLSQGPKPVTISFLQHNKCECRPKKD
B3: 72-11 (ligand)
chain: GQNHHEVVKSIDNEWRKTQCMPREVCIDVGKEFGVATNTFFKPPCVSVYRCGGCCNSEGLQCVPTEESNITMQIMRITVPLSQGPKPVTISFLQHNKCECRPKKD
B4: 73-13 (ligand)
chain: GQNHHEVVKSIDNEWRKTQCMPREVCIDVGKEYPDEIEYIFKPPCVSVYRCGGCCNDEGLECVPTEESNITMQIMRITVPLSQGPKPVTISFANHTSCRCMSKLD
B5: 74-9 (ligand)
chain: B3 chain with P44S, S47P, V48L, Y49M, S57D, Q61E
B6: 73-11 (ligand)
chain: B3 chain with F33Y, G34P, V35D, A36E, T37I, N38E, T39Y, F40I
B7: 23-9 (ligand)
chain: B1 chain with S44P, P47S, L48V, M49Y
B8: 83-1 (ligand)
chain: AHYNTEILKFMDVYQRSYCHPIETLVDIFQEYPDEIEYIFKPPCVSVYRCGGCCNDEGLECVPTEESNITMQIMRIKPHQGQHIGEMSFLQHNKCECRPKKD
B9: 83-5 (ligand)
chain: B8 chain with L90A, Q91N, N93T, K94S, E96R, R98M, P99S, K101L
B10: 41-3 (ligand)
chain: AHYNTEILKFMDVYQRSYCHPREVCIDVGKEYPDEIEYIFKPSCVPLMRCGGCCNSEGLQCVPTEESNITMQIMRIKPHQGQHIGEMSFLQHNKCECRPKKD
B11: 41-7 (ligand)
chain: B10 chain with L90A, Q91N, N93T, K94S, E96R, R98M, P99S, K101L
B12: 41-1 (ligand)
chain: B10 chain with S56D, Q60E
B13: 81-3 (ligand)
chain: B8 chain with P43S, S46P, V47L, Y48M, D56S, E60Q
B14: 61-3 (ligand)
chain: B10 chain with A1G, H2Q, Y3N, N4H, T5H, I7V, L8V
B15: 63-3 (ligand)
chain: GQNHHEVVKFMDVYQRSYCHPREVCIDVGKEYPDEIEYIFKPPCVSVYRCGGCCNSEGLQCVPTEESNITMQIMRIKPHQGQHIGEMSFLQHNKCECRPKKD
B16: 44-7 (ligand)
chain: AHYNTEILKFMDVYQRSYCHPREVCIDVGKEFGVATNTFFKPSCVPLMRCGGCCNSEGLQCVPTEESNITMQIMRIKPHQGQHIGEMSFANHTSCRCMSKLD
B17: 42-7 (ligand)
chain: B16 chain with S43P, P46S, L47V, M48Y
B18: 43-3 (ligand)
chain: B10 chain with S43P, P46S, L47V, M48Y
B19: 44-3 (ligand)
chain: B16 chain with A90L, N91Q, T93N, S94K, R96E, M98R, S99P, L101K
B20: 43-7 (ligand)
chain: AHYNTEILKFMDVYQRSYCHPREVCIDVGKEYPDEIEYIFKPPCVSVYRCGGCCNSEGLQCVPTEESNITMQIMRIKPHQGQHIGEMSFANHTSCRCMSKLD
B21: 42-3 (ligand)
chain: AHYNTEILKFMDVYQRSYCHPREVCIDVGKEFGVATNTFFKPPCVSVYRCGGCCNSEGLQCVPTEESNITMQIMRIKPHQGQHIGEMSFLQHNKCECRPKKD
B22: 43-5 (ligand)
chain: B20 chain with S56D, Q60E
B23: 81-1 (ligand)
chain: B8 chain with P43S, S46P, V47L, Y48M
B24: 43-1 (ligand)
chain: B10 chain with S43P, P46S, L47V, M48Y, S56D, Q60E
B25: 41-5 (ligand)
chain: B20 chain with P43S, S46P, V47L, Y48M, S56D, Q60E
B26: 61-1 (ligand)
chain: B15 chain with P43S, S46P, V47L, Y48M, S56D, Q60E
B27: 83-3 (ligand)
chain: B8 chain with D56S, E60Q
B28: 44-1 (ligand)
chain: B21 chain with P43S, S46P, V47L, Y48M, S56D, Q60E
B29: 44-5 (ligand)
chain: B16 chain with S56D, Q60E

Target: T1, VEGFR-3-Fc
Experiment: receptor-Fc IP
Method: (§1) The binding assay procedure was identical to the immunoprecipitation using pentahistidine antibody described in Example 2, apart from the composition of the immunoprecipitation (IP) mixes. The IP mixes used for the receptor binding analysis were as follows: For VEGFR-1 binding assays, the IP mix was phosphate buffered saline (PBS) containing 1.5% BSA, 0.06% Tween 20, 3 μg/ml heparin and 400 ng/ml VEGFR-1-Fc fusion protein (100 μl of this IP mix was added to 200 μl of sample supernatant); for VEGFR-2 binding assays, the IP mix was 82% conditioned cell supernatant from 293T cells transiently expressing VEGFR-2-Fc fusion protein in mixture with 18% of a PBS solution that contained 5% BSA, 0.2% Tween 20, and 10 μg/ml heparin (250 μl of IP mix was added to 200 μl of sample supernatant); and for VEGFR-3 binding assays, the IP mix was 82% conditioned cell supernatant from 293T cells transiently expressing VEGFR-3-Fc fusion protein, 18% of PBS containing 5% BSA, 0.2% Tween 20, and 10 μg/ml heparin (250 μl of IP mix was added to 200 μl of sample supernatant).

binding result | Binder
no binding | B1
no binding | B2
no binding | B3
no binding | B4
no binding | B5
no binding | B6
no binding | B7
no binding | B8
no binding | B9
no binding | B10
no binding | B11
no binding | B12
no binding | B13
no binding | B14
no binding | B15
no binding | B16
no binding | B17
no binding | B18
no binding | B19
no binding | B20
no binding | B21
no binding | B22
no binding | B23
no binding | B24
no binding | B25
no binding | B26
no binding | B27
no binding | B28
no binding | B29

Target: T2, VEGFR-2-Fc (UniProt P35968 20-322)
T2 construct: domain: first 3 Ig domains; conditioned supernatant of 293T cells; also called VEGFR-2-Fc fusion protein; not shown: Fc fragment of the pIg vector
T2 sequence (P35968 20-322): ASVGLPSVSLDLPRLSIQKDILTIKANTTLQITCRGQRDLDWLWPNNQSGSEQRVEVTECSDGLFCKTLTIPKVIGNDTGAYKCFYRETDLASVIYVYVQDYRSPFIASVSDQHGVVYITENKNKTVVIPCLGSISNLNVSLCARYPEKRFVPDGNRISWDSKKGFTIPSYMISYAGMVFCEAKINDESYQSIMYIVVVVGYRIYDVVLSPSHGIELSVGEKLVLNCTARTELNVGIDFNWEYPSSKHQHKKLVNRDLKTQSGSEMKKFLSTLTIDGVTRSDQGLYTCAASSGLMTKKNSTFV
Experiment: receptor-Fc IP
Method: as §1

binding result | Binder
no binding | B1
binds | B2
no binding | B3
no binding | B4
no binding | B5
no binding | B6
no binding | B7
binds | B8
binds | B9
no binding | B10
no binding | B11
no binding | B12
binds | B13
no binding | B14
binds | B15
no binding | B16
no binding | B17
no binding | B18
no binding | B19
no binding | B20
no binding | B21
no binding | B22
binds | B23
no binding | B24
no binding | B25
no binding | B26
binds | B27
no binding | B28
no binding | B29

Target: T3, VEGFR-1-Fc (UniProt P17948 27-338)
T3 construct: domain: first three Ig domains; expressed in Drosophila S2 cells, purified on Protein A sepharose; also called VEGFR-1-Fc fusion protein; not shown: Fc fragment from the Signal-pIgPlus vector
T3 sequence (P17948 27-338): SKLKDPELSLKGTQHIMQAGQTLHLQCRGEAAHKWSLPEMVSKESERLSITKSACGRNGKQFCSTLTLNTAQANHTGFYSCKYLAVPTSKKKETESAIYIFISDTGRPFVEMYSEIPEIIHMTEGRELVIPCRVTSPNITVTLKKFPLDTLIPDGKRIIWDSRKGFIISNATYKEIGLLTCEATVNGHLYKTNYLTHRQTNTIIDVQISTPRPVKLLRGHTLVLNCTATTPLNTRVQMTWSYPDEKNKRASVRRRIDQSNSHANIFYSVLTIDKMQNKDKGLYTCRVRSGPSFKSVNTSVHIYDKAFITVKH
Experiment: receptor-Fc IP
Method: as §1

binding result | Binder
no binding | B1
no binding | B2
no binding | B3
no binding | B4
no binding | B5
no binding | B6
no binding | B7
binds | B8
binds | B9
no binding | B10
no binding | B11
binds | B12
binds | B13
binds | B14
no binding | B15
no binding | B16
no binding | B17
no binding | B18
no binding | B19
no binding | B20
no binding | B21
no binding | B22
binds | B23
binds | B24
no binding | B25
binds | B26
binds | B27
no binding | B28
no binding | B29
